Molecular target: mouse TNFR1 on L929 cells (mouse) (UniProt P25118)
Assay: cell-based or functional assay

Sequence of mouse TNFR1 on L929 cells (mouse) (P25118 30-454): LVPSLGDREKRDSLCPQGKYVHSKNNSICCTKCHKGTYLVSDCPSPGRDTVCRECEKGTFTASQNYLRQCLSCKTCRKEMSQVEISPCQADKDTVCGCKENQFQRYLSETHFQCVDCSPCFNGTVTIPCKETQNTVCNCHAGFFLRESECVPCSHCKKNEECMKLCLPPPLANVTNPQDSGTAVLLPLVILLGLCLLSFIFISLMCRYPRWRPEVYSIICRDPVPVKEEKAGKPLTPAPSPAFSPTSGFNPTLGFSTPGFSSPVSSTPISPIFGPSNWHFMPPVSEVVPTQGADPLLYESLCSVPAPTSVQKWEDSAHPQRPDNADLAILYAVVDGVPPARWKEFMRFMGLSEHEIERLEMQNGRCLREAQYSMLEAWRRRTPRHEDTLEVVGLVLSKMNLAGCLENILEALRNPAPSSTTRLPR

| Substance | ND50, L929 cytotoxicity without TNF-α (agonism) |
| --- | --- |
| anti-TNFR1 antibody AF-425-PB (R&D Systems) | 100 pM |
| anti-TNFR1 antibody MAB430 (R&D Systems) | 10000 pM |
